# Reference: US20210171647A1 (WUXI BIOLOGICS SHANGHAI, published 2021)
# Columns and labels:
# Assay in all cases: ELISA, antibody coated, OX40-ECD.His mutant supernatant; relative to silent alanine substitutions;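 further: captured OX40 mutant protein detected with HRP-labelled anti-His antibody, absorbance read-out, scaled to the mean signal of control mutants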
# human OX40-ECD.His E167A = molecular target: T1, human OX40-ECD.His E167A (human, UniProt P43489 29-214)
# T1 construct: extracellular domain; not shown: C-terminal His-tag
# T1 sequence (looked up): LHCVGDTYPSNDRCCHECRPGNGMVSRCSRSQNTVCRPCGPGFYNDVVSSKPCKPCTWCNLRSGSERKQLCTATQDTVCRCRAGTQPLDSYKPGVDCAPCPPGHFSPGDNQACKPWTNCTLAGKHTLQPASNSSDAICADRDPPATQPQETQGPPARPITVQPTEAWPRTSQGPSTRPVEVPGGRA
# human OX40-ECD.His H132A = molecular target: T2, human OX40-ECD.His H132A (human, UniProt P43489 29-214)
# T2 construct: extracellular domain; not shown: C-terminal His-tag
# T2 sequence (looked up): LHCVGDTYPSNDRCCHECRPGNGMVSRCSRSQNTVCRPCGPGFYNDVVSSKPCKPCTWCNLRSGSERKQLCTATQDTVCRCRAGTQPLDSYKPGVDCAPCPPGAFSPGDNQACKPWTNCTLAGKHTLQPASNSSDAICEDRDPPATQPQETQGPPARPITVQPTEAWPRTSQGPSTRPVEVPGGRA
# human OX40-ECD.His T154A = molecular target: T3, human OX40-ECD.His T154A (human, UniProt P43489 29-214)
# T3 construct: extracellular domain; not shown: C-terminal His-tag
# T3 sequence (looked up): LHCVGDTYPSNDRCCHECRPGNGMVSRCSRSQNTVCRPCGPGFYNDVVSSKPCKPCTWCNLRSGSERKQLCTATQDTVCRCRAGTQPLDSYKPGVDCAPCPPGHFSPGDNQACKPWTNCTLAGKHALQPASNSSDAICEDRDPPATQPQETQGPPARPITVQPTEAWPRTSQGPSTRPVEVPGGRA
# human OX40-ECD.His L89A = molecular target: T4, human OX40-ECD.His L89A (human, UniProt P43489 29-214)
# T4 construct: extracellular domain; not shown: C-terminal His-tag
# T4 sequence (looked up): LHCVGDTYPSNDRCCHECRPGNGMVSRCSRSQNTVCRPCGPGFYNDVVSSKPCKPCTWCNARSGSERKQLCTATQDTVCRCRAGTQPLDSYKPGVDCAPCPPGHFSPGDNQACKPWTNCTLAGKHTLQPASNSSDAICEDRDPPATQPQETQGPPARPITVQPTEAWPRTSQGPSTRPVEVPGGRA
# human OX40-ECD.His P171A = molecular target: T5, human OX40-ECD.His P171A (human, UniProt P43489 29-214)
# T5 construct: extracellular domain; not shown: C-terminal His-tag
# T5 sequence (looked up): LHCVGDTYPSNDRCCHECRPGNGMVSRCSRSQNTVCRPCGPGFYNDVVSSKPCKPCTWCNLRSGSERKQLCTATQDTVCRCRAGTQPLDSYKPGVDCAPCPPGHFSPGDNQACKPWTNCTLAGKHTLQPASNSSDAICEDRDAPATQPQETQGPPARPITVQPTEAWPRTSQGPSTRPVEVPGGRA
# human OX40-ECD.His T105A = molecular target: T6, human OX40-ECD.His T105A (human, UniProt P43489 29-214)
# T6 construct: extracellular domain; not shown: C-terminal His-tag
# T6 sequence (looked up): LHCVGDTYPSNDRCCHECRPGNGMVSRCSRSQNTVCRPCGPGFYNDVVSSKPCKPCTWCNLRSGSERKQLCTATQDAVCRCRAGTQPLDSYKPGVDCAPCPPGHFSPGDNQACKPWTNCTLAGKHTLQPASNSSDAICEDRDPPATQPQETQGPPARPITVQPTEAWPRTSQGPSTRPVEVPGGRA
# human OX40-ECD.His S59A = molecular target: T7, human OX40-ECD.His S59A (human, UniProt P43489 29-214)
# T7 construct: extracellular domain; not shown: C-terminal His-tag
# T7 sequence (looked up): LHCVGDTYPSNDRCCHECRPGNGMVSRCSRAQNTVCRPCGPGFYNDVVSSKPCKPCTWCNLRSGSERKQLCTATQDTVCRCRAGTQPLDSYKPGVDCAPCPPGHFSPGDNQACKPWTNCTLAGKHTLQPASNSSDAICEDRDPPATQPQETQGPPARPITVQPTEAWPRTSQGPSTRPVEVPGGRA
# human OX40-ECD.His N160A = molecular target: T8, human OX40-ECD.His N160A (human, UniProt P43489 29-214)
# T8 construct: extracellular domain; not shown: C-terminal His-tag
# T8 sequence (looked up): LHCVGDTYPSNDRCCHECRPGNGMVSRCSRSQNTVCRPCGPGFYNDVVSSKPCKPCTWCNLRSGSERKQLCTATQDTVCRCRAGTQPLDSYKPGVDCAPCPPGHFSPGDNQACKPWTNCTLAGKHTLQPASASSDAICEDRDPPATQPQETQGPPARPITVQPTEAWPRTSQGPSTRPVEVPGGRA
# human OX40-ECD.His D34A = molecular target: T9, human OX40-ECD.His D34A (human, UniProt P43489 29-214)
# T9 construct: extracellular domain; not shown: C-terminal His-tag
# T9 sequence (looked up): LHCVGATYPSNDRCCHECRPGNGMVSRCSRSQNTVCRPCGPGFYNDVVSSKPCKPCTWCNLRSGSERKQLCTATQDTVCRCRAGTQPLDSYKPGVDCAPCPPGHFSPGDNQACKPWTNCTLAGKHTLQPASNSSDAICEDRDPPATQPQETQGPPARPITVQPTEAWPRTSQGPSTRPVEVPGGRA
# human OX40-ECD.His L98A = molecular target: T10, human OX40-ECD.His L98A (human, UniProt P43489 29-214)
# T10 construct: extracellular domain; not shown: C-terminal His-tag
# T10 sequence (looked up): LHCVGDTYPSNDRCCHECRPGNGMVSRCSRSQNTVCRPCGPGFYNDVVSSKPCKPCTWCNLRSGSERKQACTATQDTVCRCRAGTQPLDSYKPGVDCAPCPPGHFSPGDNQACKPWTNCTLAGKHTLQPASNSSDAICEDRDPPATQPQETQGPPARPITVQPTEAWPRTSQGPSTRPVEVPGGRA
binder,measurement,setting,value
"1.134.9-u1-IgG1L (antibody, V domains shown, fully human IgG1, lambda) VH: QVQLQESGPGLVKPSGTLSLTCAVSGGSISSYNWWSWVRQPPGKGLEWIGEIYHGGNTNYNPSLKSRVTMSVDNSKNQFSLKLSSVTAADTAVYYCARAPGDWGGSPYFDFWGQGTLVTVSS VL: SSELTQDPAVSVALGQTVRITCQGDNLRTYYASWYQQKPGQAPILLIYGRNKRPSGIPDRFSGSSSGNTASLTITGAQAEDEAAYYCNSRDSSGNPVVFGGGTKLTVL",Fold Change,human OX40-ECD.His E167A,0.998
same,Fold Change,human OX40-ECD.His H132A,0.826
same,Fold Change,human OX40-ECD.His T154A,0.843
same,Fold Change,human OX40-ECD.His L89A,0.992
same,Fold Change,human OX40-ECD.His P171A,1.02
same,Fold Change,human OX40-ECD.His T105A,0.787
same,Fold Change,human OX40-ECD.His S59A,1
same,Fold Change,human OX40-ECD.His N160A,0.992
same,Fold Change,human OX40-ECD.His D34A,0.991
same,Fold Change,human OX40-ECD.His L98A,1.01
